Reference: patent US8492147B2, “Method of inducing the differentiation of embryonic stem cells into nerve by serum-free suspension culture” (Riken, priority 2004, dated 2013)

Columns and labels:
[1] = system: Mouse ES cells (EB5 cells); assay: SFEB culture with retinoic acid, Bf1+ cells and RT-PCR of rostral/caudal markers; format: cell-based; details: RA 0.2 μM after 3-5 days of the culture
Experimental: Specifically, As ES cells, those cultured for maintenance by conventional culture method without feeder cells supplemented with 1% fetal calf serum, 10% KSR (Knockout Serum Replacement), and LIF were used for SFEB method (see, Neuron, Vol. 28: 31-40 (2000)). Next, after ES cell colonies were subjected to trypsin/EDTA treatment to make single cells, 10 ml of the cells (6×10^4 cells/ml) were seeded on cell non-adhesive culture plastic plate (diameter: 10 cm), and incubated at 37° C., 5% CO2 for five days. As medium, differentiation medium composed of 500 ml of GMEM, 5 ml of 100×NEAA, 5 ml of 100×pyruvate, and 0.5 ml of 1×10^−1 M 2-mercaptoethanol, and 5% KSR (Knockout Serum Replacement). […]
Mouse ES cells (EB5 cells) were subjected to serum-free floating culture by the SFEB method in the same manner as Example 1 for 5 days, after which they were dispersed by trypsin/EDTA treatment, seeded to a cell culture slide coated with poly-D lysine/laminin, and cultured in a differentiation medium (as described above) for 2 days, and then in a GMEM+N2 medium (composition: GMEM+1×N-2 Supplement (manufactured by Gibco, a supply of ×100 concentration was used after dilution), 0.1 mM non-essential amino acid, 1 mM sodium pyruvate, 0.1 mM 2-mercaptoethanol) for 3 days. The finally obtained differentiated cells were analyzed by the fluorescent antibody method using anti-Bf1 antibody. […]

ES cells [2] = assay: SDIA method on PA6 cells with BMP4, Math1 and cerebellar granule cell markers; format: cell-based
From the text: Although there have been no reports on differentiation induction of ES cells into cerebellar tissue, the present inventors have already reported that Math1 is induced by treating neurons differentiated by the SDIA method with BMP4 (see Proc. Natl. Acad. Sci. USA, 100, 5828-5833). […] Therefore, the Math1-positive cells induced by the SDIA method were postulated not to be cerebellar granule cells, but to be Math1-positive cells of the pons, medulla oblongata, spinal cord and the like.

ES cells [3] = assay: BMP treatment of ES cells cultured by SFEB method; format: cell-based
From the text: (§1) It is interesting to elucidate what kinds of signaling regulate this difference by analyzing RNA profile for them.

ES cells [4] = assay: BMP treatment of ES cells cultured on collagen-coated dish; format: cell-based; details: BMP treatment (5 nM)
From the text: as §1

Sox1/GFP-mES cells = assay: SFEB serum-free floating culture of Sox1/GFP-mES cells, frequency of Sox1-GFP+ cells (FACS); format: cell-based, mouse; details: for experiment-to-experiment variation of GFP expression value: initial cell density 5×10^4 cell/ml, without addition varied by about 10-15%
Experimental: Specifically, As ES cells, those cultured for maintenance by conventional culture method without feeder cells supplemented with 1% fetal calf serum, 10% KSR (Knockout Serum Replacement), and LIF were used for SFEB method (see, Neuron, Vol. 28: 31-40 (2000)). Next, after ES cell colonies were subjected to trypsin/EDTA treatment to make single cells, 10 ml of the cells (6×10^4 cells/ml) were seeded on cell non-adhesive culture plastic plate (diameter: 10 cm), and incubated at 37° C., 5% CO2 for five days. As medium, differentiation medium composed of 500 ml of GMEM, 5 ml of 100×NEAA, 5 ml of 100×pyruvate, and 0.5 ml of 1×10^−1 M 2-mercaptoethanol, and 5% KSR (Knockout Serum Replacement).
Next, For quantitative analysis, mouse ES cells wherein GFP (green fluorescent protein) was knocked in the nerve marker Sox1 gene by homologous recombination (hereinafter abbreviated as Sox1/GFP-mES cells as required; see Nature Biotechnology Vol. 21: 183-186 (2003)) were cultured by the SFEB method. The culture conditions were the same as those for the SFEB method described in 1.1. above except that Sox1/GFP-mES cells were used as the ES cells.
Next, to further improve the efficiency of differentiation into nervous system cells by the SFEB method, the present inventors attempted to determine whether or not the efficiency of differentiation into nervous system cells was improved by inhibiting Nodal, Wnt, and BMP, which are promoters of differentiation into mesodermal cells.
Next, we tested effects of Nodal and Wnt by adding Nodal protein (manufactured by R&D) and Wnt3a protein (manufactured by R&D) to SFEB culture.

EB5 cells = assay: SFEB culture, differentiation into retinal precursor cells (Rx, rhodopsin immunostaining); format: cell-based, mouse
Experimental: EB5 cells were subjected to serum-free floating culture by the SFEB method for 5 days, after which cell clamps as is were seeded to a cell culture slide coated with poly-D lysine/laminin/fibronectin, and cultured while in the KSR-containing differentiation medium for the SFEB method for a total of 8 days. Immunostaining was performed using an internally prepared antibody against Rx, a marker specific for retinal precursor cells; an Rx-positive cell population was identified in about 15-30% of the cell clamps (colonies). By treatment with 5% fetal calf serum or 100 ng/ml activin (manufactured by R&D) or treatment with 3-30 nM Shh during 3 to 5 days after the start of cultivation, the Rx positivity rate of colonies increased to 50% (about 2 times). […] Also, these cells were subjected to adhesion culture for a long time (a total of 14 to 18 days); a plurality of cells positive for the visual cell marker Crx or rhodopsin were identified in 1-5% of the colonies.

ES cells [5] = assay: SFEB culture then adhesion culture with Wnt3a, dorsal/ventral telencephalon markers; format: cell-based, mouse
Experimental: Mouse ES cells (EB5 cells) were subjected to serum-free floating culture by the SFEB method in the same manner as Example 1 for 5 days, after which they were dispersed by trypsin/EDTA treatment, seeded to a cell culture slide coated with poly-D lysine/laminin, and cultured in a differentiation medium (as described above) for 2 days, and then in a GMEM+N2 medium (composition: GMEM+1×N-2 Supplement (manufactured by Gibco, a supply of ×100 concentration was used after dilution), 0.1 mM non-essential amino acid, 1 mM sodium pyruvate, 0.1 mM 2-mercaptoethanol) for 3 days. The finally obtained differentiated cells were analyzed by the fluorescent antibody method using anti-Bf1 antibody. For comparison, neural differentiation from ES cells was performed by the SDIA method, and the cells obtained were analyzed by the fluorescent antibody method in the same manner.
ES cells were cultured by the SFEB method in the same manner as Examples 4 and 6 for 5 days to induce neural differentiation, subsequently dispersed by trypsin/EDTA treatment, seeded to a cell culture slide coated with poly-D lysine/laminin, and cultured. […] In the case of 50 ng/ml Wnt3a, about 75% of the Bf1-positive cells expressed the dorsal marker Pax6, and about 10 percent of them expressed Emx1, a marker of cerebrocortical precursor cells.

[6] = Nodal protein 5 μg/ml, Wnt3a protein 50 ng/ml, during days 0-5 and days 2-5
[7] = Wnt3a 5 ng/ml or 50 ng/ml from Day 6, total 10 days

CC1=C(/C=C/C(C)=C/C=C/C(C)=C/C(=O)O)C(C)(C)CCC1 [RA, retinoic acid]
Bf1+ cells [1]: < 1%

BMP4: BMP signal promoter, manufactured by R&D
Ki67 in the Math1-positive cells (ES cells [2]; 0.5-1 nM BMP4): negative | expression of Pax6, Zic1 in the Math1-positive cells (ES cells [2]; 0.5-1 nM BMP4, most of these cells): did not express | neural differentiation (ES cells [3]): completely suppresses neural differentiation | cell type produced (ES cells [3]; not flk1+ cells): efficiently produces E-cad^+/Oct3/4^− cells | cell type produced (ES cells [4]): induces efficient differentiation into flk1^+ lateral plate mesoderm

B1: Lefty-A: anti-Nodal reagent (Nodal signal inhibitor), manufactured by R&D Company (protein, UniProt O00292 77-366, looked up)
Left-right determination …: RFSQSFREVAGRFLASEASTHLLVFGMEQRLPPNSELVQAVLRLFQEPVPKAALHRHGRLSPRSAQARVTVEWLRVRDDGSNRTSLIDSRLVSVHESGWKAFDVTEAVNFWQQLSRPRQPLLLQVSVQREHLGPLASGAHKLVRFASQGAPAGLGEPQLELHTLDLRDYGAQGDCDPEAPMTEGTRCCRQEMYIDLQGMKWAKNWVLEPPGFLAYECVGTCQQPPEALAFNWPFLGPRQCIASETASLPMIVSIKEGGRTRPQVVSLPNMRVQKCSCASDGALVPRRLQP
frequency of Sox1-GFP+ cells (Sox1/GFP-mES cells; added on Day 0 of SFEB, 5 μg/ml Lefty-A, 1 μg/ml Dkk1, 1.5 μg/ml BMPRIA-Fc receptobody): evaluate the frequency of Sox1-GFP^+ cells | experiment-to-experiment variation of GFP expression value (Sox1/GFP-mES cells): stabilized the value of GFP expression

B2: Nodal protein: Nodal protein (manufactured by R&D), Nodal signal promoter (protein, UniProt Q96S42 238-347, looked up)
Nodal homolog: HHLPDRSQLCRKVKFQVDFNLIGWGSWIIYPKQYNAYRCEGECPNPVGEEFHPTNHAYIQSLLKRYQPHRVPSTCCAPVKTKPLSMLYVDNGRVLLDHHKDMIVEECGCL
frequency of Sox1-GFP+ cells (Sox1/GFP-mES cells; [6]): significantly suppress

B3: Dkk1: anti-Wnt reagent (Wnt signal inhibitor), manufactured by R&D Company (protein, UniProt O94907 32-266, looked up)
Dickkopf-related protein 1: TLNSVLNSNAIKNLPPPLGGAAGHPGSAVSAAPGILYPGGNKYQTIDNYQPYPCAEDEECGTDEYCASPTRGGDAGVQICLACRKRRKRCMRHAMCCPGNYCKNGICVSSDQNHFRGEIEETITESFGNDHSTLDGYSRRTTLSSKMYHTKGQEGSVCLRSSDCASGLCCARHFWSKICKPVLKEGQVCTKHRRKGSHGLEIFQRCYCGEGLSCRIQKDHHQASNSSRLHTCQRH
experiment-to-experiment variation of GFP expression value (Sox1/GFP-mES cells): stabilized the value of GFP expression

B4: activin: TGFβ family protein, Nodal signal promoter, manufactured by R&D (protein, UniProt P08476 311-426, looked up)
Inhibin beta A chain: GLECDGKVNICCKKQFFVSFKDIGWNDWIIAPSGYHANYCEGECPSHIAGTSGSSLSFHSTVINHYRMRGHSPFANLKSCCVPTKLRPMSMLYYDDGQNIIKKDIQNMIVEECGCS
modifications: Inhibin beta A chain activin A assumed
notes: TGFβ family protein, Nodal signal promoter, manufactured by R&D
Rx positivity rate of colonies (EB5 cells; 5% fetal calf serum or 100 ng/ml activin or 3-30 nM Shh during 3 to 5 days, total 8 days, without: about 15-30%): 50% | increase of Rx positivity rate of colonies (EB5 cells; same treatments, versus no treatment): about 2 times

B5: Wnt3a: Wnt3a protein (manufactured by R&D), Wnt signal promoter (protein, UniProt P56704 19-352, looked up)
Protein Wnt-3a: SYPIWWSLAVGPQYSSLGSQPILCASIPGLVPKQLRFCRNYVEIMPSVAEGIKIGIQECQHQFRGRRWNCTTVHDSLAIFGPVLDKATRESAFVHAIASAGVAFAVTRSCAEGTAAICGCSSRHQGSPGKGWKWGGCSEDIEFGGMVSREFADARENRPDARSAMNRHNNEAGRQAIASHMHLKCKCHGLSGSCEVKTCWWSQPDFRAIGDFLKDKYDSASEMVVEKHRESRGWVETLRPRYTYFKVPTERDLVYYEASPNFCEPNPETGSFGTRDRTCNVSSHGIDGCDLLCCGRGHNARAERRREKCRCVFHWCCYVSCQECTRVYDVHTCK
frequency of Sox1-GFP+ cells (Sox1/GFP-mES cells; [6]): significantly suppress | Bf1-positive cells expressing Emx1 (ES cells [5]; 50 ng/ml Wnt3a): about 10% | Bf1-positive cells expressing dorsal marker Pax6 (ES cells [5]; 50 ng/ml Wnt3a): about 75% | number of cells positive for both NRx2.1 and Bf1 (ventral telencephalon markers) (ES cells [5]; [7]): decreased remarkably | number of cells positive for both Pax6 and Bf1 (dorsal telencephalon markers) (ES cells [5]; [7]): increased
